Patent US20240132883A1, “RNA-TRIGGERED PROTEIN CLEAVAGE AND APPLICATIONS BY THE CRISPR CAS7-11-CSX29 COMPLEX” (Massachusetts Institute of Technology, published 2024)
“Also recorded” adds a separate entry of the source. Like-named read-outs stand apart in the source and are kept apart here.

Legend:
[1] = target: N-terminally FLAG-tagged citrine-Csx30-degron reporter (Desulfonema ishimotonii); assay: cell-based or functional assay
[2] = tested on: Cas7-11-Csx29 complex (mammalian codon-optimized) (Desulfonema ishimotonii); assay: cell_activity; conditions: HEK293FT, citrine-Csx30-DHFR degron reporter
Sequence of Cas7-11-Csx29 complex (mammalian codon-optimized) (Desulfonema ishimotonii) (chain, as listed by the source): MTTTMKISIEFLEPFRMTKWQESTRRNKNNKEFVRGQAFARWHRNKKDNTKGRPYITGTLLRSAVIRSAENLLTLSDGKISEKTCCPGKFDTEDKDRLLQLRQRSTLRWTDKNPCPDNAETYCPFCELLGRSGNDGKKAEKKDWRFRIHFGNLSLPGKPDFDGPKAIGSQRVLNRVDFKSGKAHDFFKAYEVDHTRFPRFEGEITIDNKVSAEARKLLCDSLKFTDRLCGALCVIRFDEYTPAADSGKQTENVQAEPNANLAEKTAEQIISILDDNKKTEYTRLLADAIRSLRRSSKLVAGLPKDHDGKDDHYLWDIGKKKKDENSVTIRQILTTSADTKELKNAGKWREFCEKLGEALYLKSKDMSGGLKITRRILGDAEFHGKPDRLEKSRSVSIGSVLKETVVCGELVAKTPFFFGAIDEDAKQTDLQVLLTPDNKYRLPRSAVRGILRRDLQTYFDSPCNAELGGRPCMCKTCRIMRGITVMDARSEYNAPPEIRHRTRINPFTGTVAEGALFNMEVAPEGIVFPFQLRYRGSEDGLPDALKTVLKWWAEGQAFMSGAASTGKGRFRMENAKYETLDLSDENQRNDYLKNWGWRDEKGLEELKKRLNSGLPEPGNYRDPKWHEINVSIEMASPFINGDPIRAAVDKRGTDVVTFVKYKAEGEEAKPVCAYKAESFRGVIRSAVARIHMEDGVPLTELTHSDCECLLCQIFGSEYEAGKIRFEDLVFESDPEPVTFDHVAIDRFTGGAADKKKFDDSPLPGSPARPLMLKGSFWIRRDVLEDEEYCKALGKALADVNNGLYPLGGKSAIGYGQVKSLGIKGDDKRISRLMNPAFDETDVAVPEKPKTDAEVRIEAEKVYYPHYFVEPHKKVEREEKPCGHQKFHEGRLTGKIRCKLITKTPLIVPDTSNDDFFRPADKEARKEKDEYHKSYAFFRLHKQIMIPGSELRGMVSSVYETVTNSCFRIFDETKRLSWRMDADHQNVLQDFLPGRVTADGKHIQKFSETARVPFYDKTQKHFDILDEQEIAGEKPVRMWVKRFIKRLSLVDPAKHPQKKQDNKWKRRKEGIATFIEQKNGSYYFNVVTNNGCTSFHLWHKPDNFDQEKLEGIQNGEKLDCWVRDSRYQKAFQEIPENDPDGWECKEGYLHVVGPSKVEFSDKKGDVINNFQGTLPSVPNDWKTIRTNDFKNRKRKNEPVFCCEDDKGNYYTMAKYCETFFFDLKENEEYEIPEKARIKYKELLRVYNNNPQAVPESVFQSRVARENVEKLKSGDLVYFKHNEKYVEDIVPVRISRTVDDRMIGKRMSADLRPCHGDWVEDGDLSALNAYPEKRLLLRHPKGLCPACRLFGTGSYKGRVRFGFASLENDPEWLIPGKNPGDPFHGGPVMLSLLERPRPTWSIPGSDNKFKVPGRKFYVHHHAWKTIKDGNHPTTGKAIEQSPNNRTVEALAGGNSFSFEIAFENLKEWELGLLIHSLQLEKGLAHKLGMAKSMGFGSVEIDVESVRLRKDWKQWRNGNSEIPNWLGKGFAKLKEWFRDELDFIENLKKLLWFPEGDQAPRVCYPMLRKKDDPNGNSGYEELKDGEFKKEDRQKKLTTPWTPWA

[3] = tested on: T1, D. ishimotonii Csx30, full-length
T1 sequence: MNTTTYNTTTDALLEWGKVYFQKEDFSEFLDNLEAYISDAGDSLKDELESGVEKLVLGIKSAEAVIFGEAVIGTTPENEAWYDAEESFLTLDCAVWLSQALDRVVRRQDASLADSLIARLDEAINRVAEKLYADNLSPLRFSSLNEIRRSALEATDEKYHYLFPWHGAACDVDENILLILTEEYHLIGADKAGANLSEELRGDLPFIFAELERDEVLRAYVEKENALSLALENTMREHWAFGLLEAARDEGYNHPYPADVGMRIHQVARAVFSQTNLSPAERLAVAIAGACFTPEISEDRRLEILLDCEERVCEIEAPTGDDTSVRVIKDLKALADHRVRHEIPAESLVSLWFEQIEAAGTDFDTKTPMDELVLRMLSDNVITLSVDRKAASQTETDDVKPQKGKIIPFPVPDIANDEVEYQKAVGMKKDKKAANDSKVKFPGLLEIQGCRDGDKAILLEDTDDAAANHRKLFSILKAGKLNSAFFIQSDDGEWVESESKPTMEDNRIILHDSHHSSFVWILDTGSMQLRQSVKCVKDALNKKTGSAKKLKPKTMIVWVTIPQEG

[4] = target: T2, N-terminal fragment of Csx30 (residues 1-427) (Desulfonema ishimotonii); assay: gel filtration (Superdex 200 Increase) and SDS-PAGE after cleavage by dCas7-11-crRNA-Csx29-tgRNA
T2 construct: Made by Csx29 cleavage of Csx30 in the gel-filtration experiment; expressed as such in the growth assays; also called Csx30-1
T2 chain: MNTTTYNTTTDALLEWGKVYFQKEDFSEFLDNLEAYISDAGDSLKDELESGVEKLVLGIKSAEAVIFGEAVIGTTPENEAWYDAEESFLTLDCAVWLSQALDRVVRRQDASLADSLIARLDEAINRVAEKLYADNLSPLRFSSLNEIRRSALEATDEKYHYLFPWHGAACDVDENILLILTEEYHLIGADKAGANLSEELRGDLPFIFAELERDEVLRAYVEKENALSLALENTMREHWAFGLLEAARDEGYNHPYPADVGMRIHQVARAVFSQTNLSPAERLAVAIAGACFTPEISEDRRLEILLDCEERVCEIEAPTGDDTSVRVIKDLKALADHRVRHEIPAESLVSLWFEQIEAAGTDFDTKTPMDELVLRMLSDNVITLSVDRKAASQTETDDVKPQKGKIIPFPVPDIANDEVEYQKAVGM

[5] = target: T3, D. ishimotonii Csx30, full-length
T3 chain: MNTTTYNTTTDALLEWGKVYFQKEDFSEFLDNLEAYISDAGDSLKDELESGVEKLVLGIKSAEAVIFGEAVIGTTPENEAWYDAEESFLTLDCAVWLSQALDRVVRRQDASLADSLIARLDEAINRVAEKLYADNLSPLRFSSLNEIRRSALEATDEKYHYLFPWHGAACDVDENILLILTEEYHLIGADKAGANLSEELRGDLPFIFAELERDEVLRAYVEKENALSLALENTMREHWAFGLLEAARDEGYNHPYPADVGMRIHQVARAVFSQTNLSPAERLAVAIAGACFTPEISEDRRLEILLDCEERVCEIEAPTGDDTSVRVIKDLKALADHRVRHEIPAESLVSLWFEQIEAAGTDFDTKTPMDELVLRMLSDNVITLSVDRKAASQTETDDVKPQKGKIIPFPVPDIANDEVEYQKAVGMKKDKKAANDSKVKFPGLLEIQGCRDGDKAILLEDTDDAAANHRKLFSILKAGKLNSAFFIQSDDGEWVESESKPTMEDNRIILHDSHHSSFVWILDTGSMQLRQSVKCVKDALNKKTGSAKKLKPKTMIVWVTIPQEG

[6] = target: T4, dCas7-11-Csx29 complex (Cas7-11 D429A/D654A with Csx29) (Desulfonema ishimotonii); assay: structure; cryo-EM 2.84 A; guide-target duplex with U4/C10 flipped out; PFS C(-1) and A(-2) contacted; no PAM; 1 mM MgCl2; conditions: tags: MBP-Cas7-11-His6; His6-Twin-Strep-SUMO-Csx29
T4 sequence (chain, as listed by the source D429A D654A D429A D654A): as the sequence (chain, as listed by the source) above, with D429A, D654A counted along it
Description: (§1) The Cas7-11-crRNA-Csx29-tgRNA complex was reconstituted by mixing the purified Cas7-11-crRNA-Csx29 complex and the target RNA, at a molar ratio of 1:4. The complex was purified by size-exclusion chromatography on a Superose 6 Increase 10/300 column (GE Healthcare), equilibrated with buffer E (20 mM HEPES-NaOH, pH 7.0, 150 mM NaCl, 1 mM MgCl₂, and 1 mM DTT). The peak fraction containing Cas7-11-crRNA-Csx29-tgRNA was analyzed by TBE-urea gel, and concentrated to an A₂₆₀ of 3.0, using an Amicon Ultra-4 Centrifugal Filter Unit (MWCO 50 kDa). Cryo-EM grids were glow-discharged using PIB-10 Ion Bombarder (JEOL, Japan) with 10 mA current for 3 min. The sample (3 μL) was applied to freshly glow-discharged Au 300 mesh R1.2/1.3 grids (Quantifoil) in a Vitrobot Mark IV (FEI) at 4° C. under 100% humidity conditions, and the excess solution of the sample was blotted with filter paper (Agar Scientific) with a waiting time of 10 s and a blotting time of 4 s. The grids were plunge-frozen into liquid ethane cooled at liquid nitrogen temperature. […] The sample was applied onto freshly glow-discharged Au 300 mesh R0.6/1 grids (Quantifoil) in a Vitrobot Mark IV under similar conditions to those for the Cas7-11-crRNA-Csx29-tgRNA complex. […] Micrographs were recorded at a nominal magnification of ×105,000 with a pixel size of 0.83 Å in a total exposure of 48 e⁻/Å² per 48 frames with exposure time of 2.5 s. […]

[7] = target: T4, dCas7-11-Csx29 complex (Cas7-11 …); assay: structure; cryo-EM 2.49 A, target-free; 5' tag anchored by Cas7.1/Cas7.2; conditions: tags: MBP-Cas7-11-His6; His6-Twin-Strep-SUMO-Csx29
Description: as §1

Csx29, mammalian codon-optimized, expressed in HEK293FT cells with Cas7-11 (enzyme)
citrine fluorescence in HEK293FT cells [1]: 3 fold

Gluc-targeting guide RNA ; Gaussia luciferase mRNA target
activity (fold citrine fluorescence) [2]: 3

Csx29 H615A/C658A (catalytically inactivated Csx29)
in vitro cleavage of Csx30 (SDS-PAGE) [3]: The H615A/C658A mutations in Csx29 abolished the Csx30 cleavage

B1: C-terminal fragment of Csx30 (residues 428-565) (other)
chain: KKDKKAANDSKVKFPGLLEIQGCRDGDKAILLEDTDDAAANHRKLFSILKAGKLNSAFFIQSDDGEWVESESKPTMEDNRIILHDSHHSSFVWILDTGSMQLRQSVKCVKDALNKKTGSAKKLKPKTMIVWVTIPQEG
notes: Made by Csx29 cleavage of Csx30; also called Csx30-2
binding result [4]: no binding

B2: D. ishimotonii Csx29, expressed as His6-Twin-Strep-SUMO-Csx29 (protein)
chain: HHHHHHMSNPIRDIQDRLKTAKFDNKDDMMNLASSLYKYEKQLMDSSEATLCQQGLSNRPNSFSQLSQFRDSDIQSKAGGQTGKFWQNEYEACKNFQTHKERRETLEQIIRFLQNGAEEKDADDLLLKTLARAYFHRGLLYRPKGFSVPARKVEAMKKAIAYCEIILDKNEEESEALRIWLYAAMELRRCGEEYPENFAEKLFYLANDGFISELYDIRLFLEYTEREEDNNFLDMILQENQDRERLFELCLYKARACFHLNQLNDVRIYGESAIDNAPGAFADPFWDELVEFIRMLRNKKSELWKEIAIKAWDKCREKEMKVGNNIYLSWYWARQRELYDLAFMAQDGIEKKTRIADSLKSRTTLRIQELNELRKDAHRKQNRRLEDKLDRIIEQENEARDGAYLRRNPPCFTGGKREEIPFARLPQNWIAVHFYLNELESHEGGKGGHALIYDPQKAEKDQWQDKSFDYKELHRKFLEWQENYILNEEGSADFLVTLCREIEKAMPFLFKSEVIPEDRPVLWIPHGFLHRLPLHAAMKSGNNSNIEIFWERHASRYLPAWHLFDPAPYSREESSTLLKNFEEYDFQNLENGEIEVYAPSSPKKVKEAIRENPAILLLLCHGEADMTNPFRSCLKLKNKDMTIFDLLTVEDVRLSGSRILLGACESDMVPPLEFSVDEHLSVSGAFLSHKAGEIVAGLWTVDSEKVDECYSYLVEEKDFLRNLQEWQMAETENFRSENDSSLFYKIAPFRIIGFPAE
cleavage of Csx30 within the Csx30-Csx31-DiRpoE complex (gel filtration, SDS-PAGE) [5]: Like isolated Csx30, Csx30 in the Csx30-Csx31-DiRpoE complex was cleaved by the Cas7-11-Csx29 complex
in vitro cleavage of Csx30 (SDS-PAGE) [5]: Cas7-11-crRNA-Csx29 cleaves Csx30 into two fragments, Csx30-1 (-50 kDa) and Csx30-2 (-15 kDa), only in the presence of the tgRNA; also recorded: the D429A/D654A catalytic mutations in Cas7-11 ... unexpectedly, improved the Csx30 cleavage by Csx29
in vitro cleavage of Csx30 (SDS-PAGE) with target RNAs TR, CTR, NTR [5]: Csx30 was cleaved by the Cas7-11-Csx29 complex efficiently in the presence of CTR, but not TR and NTR

B3: crRNA (38 nt, 15-nt 5' tag + 23-nt spacer) ; target RNA with non-matching PFS (tgRNA/CTR) (ssRNA ; ssRNA)
RNA 1: UUGAUGUCACGGAACCUUUGUUGUCUUCGACAUGGGUA
RNA 2: GGAUUACCCAUGUCGAAGACAACAAAGCAAGGC
binding result [6]: binds

UUGAUGUCACGGAACCUUUGUUGUCUUCGACAUGGGUA (ssRNA) [crRNA (38 nt, 15-nt 5' tag + 23-nt spacer)]
binding result [7]: binds
